Results published in patent US20240336657A1, “G-ALPHA-S PEPTIDE INHIBITORS AND USES THEREOF” (The Regents of the University of California, priority 2021, published 2024).
Positions of bridges follow the written chain, without caps; N, C: chain ends. Non-standard residues stand in square brackets, D forms with d. Residues, ends and D or L forms follow the SMILES beside them.

Experiments:
[1] = molecular target: WT Gαs (Homo sapiens, UniProt P63092); assay: Gαs inhibition in the presence of Gβγ (FIG. 4, FIGS. 6A-6B); type: biochemical
[2] = molecular target: R201C Gαs (Homo sapiens, UniProt P63092, R201C); assay: Gαs mutant inhibition (FIGS. 1A-1B, FIGS. 6A-6B); type: biochemical; conditions: in the presence of Gβγ
[3] = molecular target: R201H Gαs (Homo sapiens, UniProt P63092, R201H); assay: Gαs mutant inhibition in the presence of Gβγ (FIGS. 6A-6B); type: biochemical
[4] = molecular target: Gαs S275L (Homo sapiens, UniProt P63092, S275L); assay: Gαs inhibition with mutation in the cyclic peptide binding site (FIGS. 6A-6B); type: biochemical; conditions: in the assay tested
[5] = molecular target: R201C Gαs/GDP (Homo sapiens, UniProt P63092, R201C); assay: Binding to R201C Gαs/GDP (FIGS. 7A-7B)
[6] = molecular target: WT Gαs (purified, adenylyl cyclase activity assay) (UniProt P63092-2 7-380); assay: cell-based or functional assay
[7] = molecular target: WT Gαs in HEK293 cell membranes, P63092; assay: cell-based or functional assay
[8] = molecular target: T1, Biotinylated Avi-tagged Gαi1 (residues 2-354 of human Gαi1), GppNHp-bound (human, UniProt P63096 2-354, biotin on the Avi tag (BirA)); assay: BLI, biotinylated Gα on streptavidin biosensors
T1 construct: Loaded with GppNHp; Same polypeptide as m9, other nucleotide state
Description: (§1) BLI experiments were performed using an OctetRED384 instrument from ForteBio. All experiments were performed at 25° C. using BLI buffer (10 mM HEPES pH 7.4, 150 mM NaCl, 1 mM MgCl₂, 0.05% Tween-20, 0.1% DMSO, 0.2 mM GppNHp or GDP). Cyclic peptides were diluted to a series of concentrations in BLI buffer plus 10 μM Biotin. Assays were conducted in Greiner 384well, black, flat bottom polypropylene plates containing the protein solutions, BLI buffer plus 10 μM Biotin for dissociation, and serial dilutions of cyclic peptides to be tested.
(§2) Biotinylated proteins were immobilized on Streptavidin biosensors by dipping sensors into plate wells containing protein solutions at a concentration of 100-150 nM. Protein loading is around 2-3 nm. Sensors loaded with proteins were moved and dipped into wells with BLI buffer plus 10 μM Biotin to block unlabeled Streptavidin. […] Association and dissociation times were carefully determined to ensure full association and dissociation.
(§3) Raw kinetic data collected were processed with the Data Analysis software provided by the manufacturer using single reference subtraction in which buffer-only reference was subtracted (For GN13 analysis). […] The resulting data were analyzed based on a 1:1 binding model from which kₒₙ and koff values were obtained and then Kd values were calculated.

[9] = molecular target: T2, Biotinylated Avi-tagged Gαi1 (residues 2-354 of human Gαi1), GDP-bound (human, UniProt P63096 2-354, biotin on the Avi tag (BirA)); assay: BLI, biotinylated Gα on streptavidin biosensors
T2 construct: Loaded with GDP; also called avi-Gαi (FL, WT)
Description: as §1, §2, §3

[10] = molecular target: T3, Biotinylated His/Avi-tagged Gαs used in the RaPID selection, GppNHp-bound (human, UniProt P63092 7-394, biotin on the Avi tag (BirA co-expressed)); assay: RaPID comparison selection: peptide-mRNA-cDNA complexes on Gαs-immobilized streptavidin beads, qPCR and sequencing
T3 construct: Immobilized on streptavidin magnetic beads

[11] = molecular target: WT Gαs (purified, steady-state GTPase, GDP dissociation and GTPγS binding assays) (UniProt P63092-2 7-380); assay: cell-based or functional assay
[12] = molecular target: T4, Biotinylated Avi-tagged WT Gαs (residues 7-380 of the short isoform of human Gαs), GDP-bound (human, UniProt P63092 7-394, biotin on the Avi tag (BirA)); assay: TR-FRET competition: biotinylated GDP-bound Gαs WT against His-Gβγ(C68S)
T4 construct: Loaded with GDP; Same polypeptide as m7, other nucleotide state; also called biotinylated Gαs WT
Description: (§4) Biotinylated avi-Gαs (6-end, WT) and avi-Gαi (FL, WT) were diluted to 32 nM (8×) using assay buffer (1× PBS 7.4, 2 mM DTT, 0.1% BSA, 2 mM MgCl₂, 0.05% Tween plus 0.5 mM GDP), followed by mixing with a same volume of 8× streptavidin XL665 stock (32 nM in the assay buffer). 8× His-Gβ/γ (C68S) stock (16 nM) and 8× anti-6His-Tb cryptate stock (0.4 μg/mL) were added into the Gα/XL665 mixtures. Finally, 2× stocks of cyclic peptides were added with the protein mixtures. After incubation at room temperature for 2 hour at room temperature. […] FRET Signal was calculated as the ratio of [Read B]/[Read A].

[13] = molecular target: T4, Biotinylated Avi-tagged WT Gαs …; assay: TR-FRET competition: biotinylated Gαs or Gαi (GDP) against His-Gβγ(C68S)
Description: as §4

T4 sequence (P63092 other isoform, or with tags, fused parts or gaps limits assumed): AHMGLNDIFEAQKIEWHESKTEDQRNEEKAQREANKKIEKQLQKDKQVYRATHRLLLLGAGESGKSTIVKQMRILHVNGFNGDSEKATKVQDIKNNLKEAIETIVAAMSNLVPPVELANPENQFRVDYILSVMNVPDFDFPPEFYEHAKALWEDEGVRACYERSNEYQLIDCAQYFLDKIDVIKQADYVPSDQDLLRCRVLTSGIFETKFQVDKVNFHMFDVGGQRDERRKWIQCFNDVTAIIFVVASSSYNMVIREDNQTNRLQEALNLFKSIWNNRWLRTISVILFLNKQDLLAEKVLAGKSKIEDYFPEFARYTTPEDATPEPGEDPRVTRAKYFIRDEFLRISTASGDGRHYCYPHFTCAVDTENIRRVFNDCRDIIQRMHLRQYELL
Chain of WT Gαs (P63092 whole entry): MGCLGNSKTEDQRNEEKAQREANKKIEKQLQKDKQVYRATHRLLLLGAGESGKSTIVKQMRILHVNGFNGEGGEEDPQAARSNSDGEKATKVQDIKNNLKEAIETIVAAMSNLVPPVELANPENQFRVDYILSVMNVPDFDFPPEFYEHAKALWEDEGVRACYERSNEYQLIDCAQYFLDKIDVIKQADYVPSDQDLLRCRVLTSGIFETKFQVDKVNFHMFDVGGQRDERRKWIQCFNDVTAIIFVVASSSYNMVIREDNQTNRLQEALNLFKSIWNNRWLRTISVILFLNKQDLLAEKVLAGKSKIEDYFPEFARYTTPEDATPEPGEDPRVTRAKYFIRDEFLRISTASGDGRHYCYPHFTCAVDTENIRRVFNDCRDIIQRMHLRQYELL
T2 sequence (P63096 other isoform, or with tags, fused parts or gaps limits assumed): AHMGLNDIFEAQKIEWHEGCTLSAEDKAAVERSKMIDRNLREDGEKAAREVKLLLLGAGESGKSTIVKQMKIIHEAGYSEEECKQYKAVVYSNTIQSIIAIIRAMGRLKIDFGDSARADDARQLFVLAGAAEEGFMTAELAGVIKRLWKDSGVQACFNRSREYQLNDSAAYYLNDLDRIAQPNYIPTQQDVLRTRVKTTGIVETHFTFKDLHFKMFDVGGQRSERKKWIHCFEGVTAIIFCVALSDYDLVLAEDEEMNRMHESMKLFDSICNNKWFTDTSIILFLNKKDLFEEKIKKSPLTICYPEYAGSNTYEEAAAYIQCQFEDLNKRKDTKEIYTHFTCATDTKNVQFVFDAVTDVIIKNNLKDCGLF
T1 sequence (P63096 other isoform, or with tags, fused parts or gaps limits assumed): as above
Chain of R201H Gαs (P63092 whole entry R201H): as the sequence (P63092 whole entry) above, with R201H counted along it
Chain of R201C Gαs/GDP (P63092 whole entry R201C): as the sequence (P63092 whole entry) above, with R201C counted along it
Chain of R201C Gαs (P63092 whole entry R201C): as the sequence (P63092 whole entry) above, with R201C counted along it
Chain of Gαs S275L (P63092 whole entry S275L): as the sequence (P63092 whole entry) above, with S275L counted along it
Chain of WT Gαs (purified, steady-state GTPase, GDP dissociation and GTPγS binding assays) (P63092 other isoform, or with tags, fused parts or gaps limits assumed): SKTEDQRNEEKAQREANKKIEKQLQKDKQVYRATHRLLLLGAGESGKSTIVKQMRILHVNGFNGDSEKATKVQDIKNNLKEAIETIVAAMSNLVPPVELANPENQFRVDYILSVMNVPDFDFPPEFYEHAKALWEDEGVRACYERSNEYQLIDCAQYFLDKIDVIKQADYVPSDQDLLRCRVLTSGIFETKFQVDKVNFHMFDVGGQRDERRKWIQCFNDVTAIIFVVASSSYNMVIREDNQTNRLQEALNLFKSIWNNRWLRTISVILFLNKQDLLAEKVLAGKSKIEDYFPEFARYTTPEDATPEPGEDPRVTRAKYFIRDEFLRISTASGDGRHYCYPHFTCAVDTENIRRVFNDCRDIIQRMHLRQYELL
T3 sequence (P63092 other isoform, or with tags, fused parts or gaps limits assumed): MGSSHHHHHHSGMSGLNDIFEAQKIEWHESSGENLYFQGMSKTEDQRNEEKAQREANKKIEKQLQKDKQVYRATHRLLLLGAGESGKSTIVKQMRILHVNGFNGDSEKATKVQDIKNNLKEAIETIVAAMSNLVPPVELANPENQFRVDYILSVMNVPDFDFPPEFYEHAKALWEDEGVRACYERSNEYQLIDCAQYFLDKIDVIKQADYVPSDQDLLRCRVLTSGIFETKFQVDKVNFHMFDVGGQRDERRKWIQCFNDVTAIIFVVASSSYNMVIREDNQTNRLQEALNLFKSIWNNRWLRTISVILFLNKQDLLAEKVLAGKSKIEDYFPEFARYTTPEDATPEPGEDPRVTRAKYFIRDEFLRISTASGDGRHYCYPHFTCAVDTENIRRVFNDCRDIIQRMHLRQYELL
Chain of WT Gαs in HEK293 cell membranes, P63092 (P63092 2-394): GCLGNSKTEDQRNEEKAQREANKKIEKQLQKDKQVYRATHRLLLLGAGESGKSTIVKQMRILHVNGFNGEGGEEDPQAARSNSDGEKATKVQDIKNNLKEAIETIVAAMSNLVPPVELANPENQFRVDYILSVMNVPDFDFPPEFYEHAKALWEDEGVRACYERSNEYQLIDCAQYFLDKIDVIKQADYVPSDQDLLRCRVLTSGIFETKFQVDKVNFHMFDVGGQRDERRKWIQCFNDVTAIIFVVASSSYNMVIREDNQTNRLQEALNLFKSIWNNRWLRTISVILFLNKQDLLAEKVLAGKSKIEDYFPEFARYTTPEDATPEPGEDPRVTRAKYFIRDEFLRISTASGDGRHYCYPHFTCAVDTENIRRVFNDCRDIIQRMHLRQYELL

**Q.** For `CC[C@H](C)[C@@H]1NC(=O)[C@H](Cc2c[nH]cn2)NC(=O)[C@H](Cc2ccc(O)cc2)NC(=O)[C@H]([C@@H](C)CC)NC(=O)[C@H](CO)NC(=O)[C@H](CCC(N)=O)NC(=O)[C@H](Cc2ccccc2)NC(=O)[C@@H](Cc2ccc(O)cc2)NC(=O)CSC[C@@H](C(N)=O)NC(=O)[C@H](CC(C)C)NC(=O)[C@H](CCC(=O)O)NC(=O)CNC(=O)[C@H](Cc2c[nH]c3ccccc23)NC1=O` [GR6] ({CH2CO}-[dY]FQSIYHIWGELC-NH2; thioether N-13), which “inhibition of WT Gαs” value [1] is on record?
**A.** potently inhibits

**Q.** And the “inhibition of R201C Gαs” value [2]?
**A.** inhibits

**Q.** What about the “inhibition of R201H Gαs” value [3] of the same molecule?
**A.** inhibits

**Q.** And the “inhibition with S275L mutation in the cyclic peptide binding site” value [4]?
**A.** blocked

**Q.** What about the “binding to R201C Gαs/GDP” value [5] of the same molecule?
**A.** increased binding

B1: GN13 (peptide)
peptide: {CH2CO}-[dY]FESVYAIWGTLCG-NH2
modifications: thioether N-13
SMILES: CC[C@H](C)[C@@H]1NC(=O)[C@H](C)NC(=O)[C@H](Cc2ccc(O)cc2)NC(=O)[C@H](C(C)C)NC(=O)[C@H](CO)NC(=O)[C@H](CCC(=O)O)NC(=O)[C@H](Cc2ccccc2)NC(=O)[C@@H](Cc2ccc(O)cc2)NC(=O)CSC[C@@H](C(=O)NCC(N)=O)NC(=O)[C@H](CC(C)C)NC(=O)[C@H]([C@@H](C)O)NC(=O)CNC(=O)[C@H](Cc2c[nH]c3ccccc23)NC1=O
notes: Residue numbers in the text (E3, V5, I8, W9, T11) fit this order; In the RaPID selections the peptide carried a GSGSGS linker, puromycin and its mRNA/cDNA; also called cyclic peptide GN13
**Q.** Which “IC50, inhibition of Gαs-mediated adenylyl cyclase activation (cAMP production, reconstituted Gαs activity assay)” value [6] does the source give for B1 here?
**A.** 4.15 µM

**Q.** And the IC50, inhibition of ISO-stimulated Gαs activity (cAMP) in HEK293 cell membranes [7]?
**A.** 12.2 µM

**Q.** Does B1 bind [8]?
**A.** no binding

**Q.** Does B1 bind [9]?
**A.** no binding

**Q.** What about the “fold selectivity for GppNHp-bound over GDP-bound Gαs” value [10] of the same molecule?
**A.** > 100 fold

B2: GD20 (peptide)
peptide: {CH2CO}-[dY]LITFRQWAFNLPCG-NH2
modifications: thioether N-14
SMILES: CC[C@H](C)[C@@H]1NC(=O)[C@H](CC(C)C)NC(=O)[C@@H](Cc2ccc(O)cc2)NC(=O)CSC[C@@H](C(=O)NCC(N)=O)NC(=O)[C@@H]2CCCN2C(=O)[C@H](CC(C)C)NC(=O)[C@H](CC(N)=O)NC(=O)[C@H](Cc2ccccc2)NC(=O)[C@H](C)NC(=O)[C@H](Cc2c[nH]c3ccccc23)NC(=O)[C@H](CCC(N)=O)NC(=O)[C@H](CCCNC(=N)N)NC(=O)[C@H](Cc2ccccc2)NC(=O)[C@H]([C@@H](C)O)NC1=O
notes: also called cyclic peptide GD20
**Q.** How did the “IC50, inhibition of Gαs steady-state GTPase activity” value [11] turn out when B2 was run?
**A.** 1.15 µM

**Q.** And the IC50 [12]?
**A.** 0.0184 µM

**Q.** And the “fold selectivity for Gαs over Gαi” value [13]?
**A.** ≥ 100 fold
